Laboratory results reported in patent US20220267464A1 (Hoffmann-La Roche, published 2022).

T1: human CEA (CEACAM5), form in the assay not stated (human, UniProt P06731 35-685, limits assumed)
T1 sequence: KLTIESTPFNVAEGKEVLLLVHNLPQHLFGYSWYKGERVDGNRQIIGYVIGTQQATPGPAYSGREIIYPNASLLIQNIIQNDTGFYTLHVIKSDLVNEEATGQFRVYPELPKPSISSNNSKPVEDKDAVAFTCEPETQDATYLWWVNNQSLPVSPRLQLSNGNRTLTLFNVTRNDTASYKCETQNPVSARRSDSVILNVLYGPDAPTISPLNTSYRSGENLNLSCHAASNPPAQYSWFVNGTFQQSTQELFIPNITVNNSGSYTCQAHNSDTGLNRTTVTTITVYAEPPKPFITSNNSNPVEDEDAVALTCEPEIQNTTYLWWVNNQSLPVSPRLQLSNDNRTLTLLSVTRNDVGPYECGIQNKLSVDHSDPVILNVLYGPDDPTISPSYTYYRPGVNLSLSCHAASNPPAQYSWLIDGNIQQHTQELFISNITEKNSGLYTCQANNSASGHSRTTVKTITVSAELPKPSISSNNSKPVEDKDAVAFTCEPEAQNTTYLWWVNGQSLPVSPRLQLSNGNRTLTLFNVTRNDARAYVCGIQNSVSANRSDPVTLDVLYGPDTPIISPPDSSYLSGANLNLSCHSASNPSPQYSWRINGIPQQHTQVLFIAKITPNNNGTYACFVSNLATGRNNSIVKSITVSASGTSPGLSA

T2: NA(B2)A-avi-His (human, biotin on the avi tag)
T2 construct: chimeric soluble control antigen without the CEACAM5 A2 domain
T2 chain: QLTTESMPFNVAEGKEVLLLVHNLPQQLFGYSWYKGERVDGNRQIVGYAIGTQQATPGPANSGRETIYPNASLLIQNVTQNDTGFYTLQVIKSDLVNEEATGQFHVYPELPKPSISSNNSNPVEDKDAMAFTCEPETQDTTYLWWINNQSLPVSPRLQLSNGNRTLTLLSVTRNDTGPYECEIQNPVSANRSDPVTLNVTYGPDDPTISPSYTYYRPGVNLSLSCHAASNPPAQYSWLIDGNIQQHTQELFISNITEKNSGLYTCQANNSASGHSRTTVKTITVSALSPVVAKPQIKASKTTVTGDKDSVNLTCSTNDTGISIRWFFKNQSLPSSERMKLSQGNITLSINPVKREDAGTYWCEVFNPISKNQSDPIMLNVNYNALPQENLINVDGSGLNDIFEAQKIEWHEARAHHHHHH

T3: hu N(A2-B2)A-avi-His (human, biotin on the avi tag where used biotinylated)
T3 construct: chimeric soluble antigen; also called hu N(A2-B2)A-avi-His B; human CEA (A2 domain)
T3 chain: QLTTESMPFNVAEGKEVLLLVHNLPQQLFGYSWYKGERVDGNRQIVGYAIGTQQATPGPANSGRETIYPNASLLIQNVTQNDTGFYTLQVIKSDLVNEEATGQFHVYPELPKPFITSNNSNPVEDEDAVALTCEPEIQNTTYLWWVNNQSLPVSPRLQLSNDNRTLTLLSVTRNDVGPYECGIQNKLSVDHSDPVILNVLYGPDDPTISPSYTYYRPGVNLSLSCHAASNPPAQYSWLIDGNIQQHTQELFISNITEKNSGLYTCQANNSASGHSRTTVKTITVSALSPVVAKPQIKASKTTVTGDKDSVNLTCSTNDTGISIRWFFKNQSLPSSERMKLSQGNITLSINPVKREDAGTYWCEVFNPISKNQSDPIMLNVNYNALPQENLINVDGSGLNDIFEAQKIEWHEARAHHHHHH


What was measured:
[1] = molecular target: T1, human CEA (CEACAM5), form in the assay …; assay: SPR
NA(B2)A-avi-His = molecular target: T2, NA(B2)A-avi-His; assay: SPR (ProteOn), Fab in bacterial supernatant, 2000 RU antigen
Source text: (§1) For this experiment, about 2000, 1000, and 500 RU of biotinylated N(A2B2)A-avi-His were immobilized on 3 channels using a Streptavidin-coated NLC chip in vertical orientation. As a control for non-specific binding, 2000 RU of biotinylated NA(B2)A-avi-His protein was immobilized on channel 4. For the off-rate analysis of the identified ELISA-positive clones, injection direction was changed to horizontal orientation. Before injection, each Fab-containing bacterial supernatant was filtered and 3-fold diluted with PBS. The association time was 100 s at 100 μl/minute and dissociation times were either 600 or 1200 s. Bacterial supernatant without Fab fragment was used for referencing. Regeneration was performed with 10 mM glycine pH 1.5 for 35 s at 50 μl/min (vertical orientation).
(§2) Dissociation rate constants (koff) were calculated using a simple one-to-one Langmuir binding model in ProteOn Manager v3.1 software by simultaneously fitting the sensorgrams. […] Shortlisted clones were re-evaluated in an additional SPR experiments under the same conditions. […] Bacterial supernatant without Fab fragment was used for referencing.

hu N(A2-B2)A-avi-His [2] = molecular target: T3, hu N(A2-B2)A-avi-His; assay: SPR (ProteOn XPR36), Fab in bacterial supernatant, biotinylated antigen on NLC chip
Source text: as §1, §2

hu N(A2-B2)A-avi-His [3] = molecular target: T3, hu N(A2-B2)A-avi-His; assay: SPR (ProteOn XPR36), purified Fab, biotinylated antigen on NLC chip
Description: Affinity (KD) of purified Fab fragments was measured by surface plasmon resonance using a Proteon XPR36 machine using the same setup as described before.
About 2000, 1000, 500, and 250 RU of biotinylated N(A2B2)A-avi-His were immobilized on 4 channels of a Streptavidin-coated NLC chip in vertical orientation. As a control for non-specific binding, 2000 RU of biotinylated NA(B2)A-avi-His protein was immobilized on channel 5. For the determination of the affinity (KD) of the purified clones, injection direction was changed to horizontal orientation. Two-fold dilution series of purified Fab fragments (varying concentration ranges between 100 and 3 nM) were injected simultaneously at 100 μl/min along separate channels 1-5, with association times of 100 s, and dissociation times of 1200 s. Buffer (PBST) was injected along the sixth channel to provide an “in-line” blank for referencing. Regeneration was performed with 10 mM glycine pH 1.5 for 35 s at 50 μl/min (vertical orientation).
Association rate constants (kon) and dissociation rate constants (koff) were calculated using a simple one-to-one Langmuir binding model in ProteOn Manager v3.1 software by simultaneously fitting the association and dissociation sensorgrams. The equilibrium dissociation constant (KD) was calculated as the ratio koff/kon.

Row | Kd [1] | binding result (NA(B2)A-avi-His) | koff (hu N(A2-B2)A-avi-His [2]) | Kd (hu N(A2-B2)A-avi-His [3]) | koff (hu N(A2-B2)A-avi-His [3]) | kon (hu N(A2-B2)A-avi-His [3]) | Binder
1 | ~800 pM |  |  |  |  |  | A5B7 parental murine anti-CEA antibody (antibody, V domains shown, also called parental chimeric antibody) VH: EVKLVESGGGLVQPGGSLRLSCATSGFTFTDYYMNWVRQPPGKALEWLGFIGNKANGYTTEYSASVKGRFTISRDKSQSILYLQMNTLRAEDSATYYCTRDRGLRFYFDYWGQGTTLTVSS VL: QTVLSQSPAILSASPGEKVTMTCRASSSVTYIHWYQQKPGSSPKSWIYATSNLASGVPARFSGSGSGTSYSLTISRVEAEDAATYYCQHWSSKPPTFGGGTKLEIK
2 | ~2500 pM |  |  |  |  |  | A5H1EL1D humanized anti-CEA antibody (format in the assay not stated) (antibody, V domains shown, also called huA5B7; 3-23A5-1E / A5-L1D) VH: EVQLLESGGGLVQPGGSLRLSCAASGFTFTDYYMNWVRQAPGKGLEWLGFIGNKANAYTTEYSASVKGRFTISRDKSKNTLYLQMNSLRAEDTATYYCTRDRGLRFYFDYWGQGTTVTVSS VL: EIVLTQSPATLSLSPGERATLSCRASSSVTYIHWYQQKPGQAPRSWIYATSNLASGIPARFSGSGSGTDFTLTISSLEPEDFAVYYCQHWSSKPPTFGQGTKLEIK
3 |  | no binding | 7.41e-05 s⁻¹ | 250 pM | 5.78e-05 s⁻¹ | 225000 M⁻¹ s⁻¹ | P006.038 Fab (Fab, V domains shown, Fab from E. coli (supernatant or IMAC-purified); Flag tag; also called CEA (P006.038)) VH: EVQLLESGGGLVQPGGSLRLSCAASGFTFTDYYMNWVRQAPGKGLEWLGFIGNKANAYTTEYSASVKGRFTISRDKSKNTLYLQMNSLRAEDTATYYCTRDRGIRFGFDYWGQGTTVTVSS VL: EIVLTQSPATLSLSPGERATLSCRASSSVTYIHWYQQKPGQAPRSWIYATSNLASGIPARFSGSGSGTDFTLTISSLEPEDFAVYYCQHWSSVPPTFGQGTKLEIK
